Reference: US20050260177A1

How the values were obtained:
[1] = biological target: Ra12-C888P fusion protein (human C888P fused to Mycobacterium tuberculosis Ra12); assay: ELISA, RC888P on plate, serum 1:1000, well 1
[2] = biological target: Ra12-C888P fusion protein (human C888P fused to Mycobacterium tuberculosis Ra12); assay: ELISA, RC888P on plate, serum 1:1000, well 2
[3] = biological target: Ra12-C888P fusion protein (human C888P fused to Mycobacterium tuberculosis Ra12); assay: ELISA, RC888P on plate, serum 1:2000, well 1
[4] = biological target: Ra12-C888P fusion protein (human C888P fused to Mycobacterium tuberculosis Ra12); assay: ELISA, RC888P on plate, serum 1:2000, well 2
[5] = biological target: Ra12-C888P fusion protein (human C888P fused to Mycobacterium tuberculosis Ra12); assay: ELISA, RC888P on plate, serum 1:4000, well 1
[6] = biological target: Ra12-C888P fusion protein (human C888P fused to Mycobacterium tuberculosis Ra12); assay: ELISA, RC888P on plate, serum 1:4000, well 2
[7] = biological target: Ra12-C888P fusion protein (human C888P fused to Mycobacterium tuberculosis Ra12); assay: ELISA, RC888P on plate, serum 1:8000, well 1
[8] = biological target: Ra12-C888P fusion protein (human C888P fused to Mycobacterium tuberculosis Ra12); assay: ELISA, RC888P on plate, serum 1:8000, well 2
[9] = biological target: Ra12-C888P fusion protein (human C888P fused to Mycobacterium tuberculosis Ra12); assay: ELISA, RC888P on plate, serum 1:16000, well 1
[10] = biological target: Ra12-C888P fusion protein (human C888P fused to Mycobacterium tuberculosis Ra12); assay: ELISA, RC888P on plate, serum 1:16000, well 2
[11] = biological target: Ra12-C888P fusion protein (human C888P fused to Mycobacterium tuberculosis Ra12); assay: ELISA, RC888P on plate, serum 1:32000, well 1
[12] = biological target: Ra12-C888P fusion protein (human C888P fused to Mycobacterium tuberculosis Ra12); assay: ELISA, RC888P on plate, serum 1:32000, well 2
[13] = biological target: Ra12-C888P fusion protein (human C888P fused to Mycobacterium tuberculosis Ra12); assay: ELISA, RC888P on plate, serum 1:64000, well 1
[14] = biological target: Ra12-C888P fusion protein (human C888P fused to Mycobacterium tuberculosis Ra12); assay: ELISA, RC888P on plate, serum 1:64000, well 2
[15] = biological target: Ra12-C888P fusion protein (human C888P fused to Mycobacterium tuberculosis Ra12); assay: ELISA, RC888P on plate, serum 1:128000, well 1
[16] = biological target: Ra12-C888P fusion protein (human C888P fused to Mycobacterium tuberculosis Ra12); assay: ELISA, RC888P on plate, serum 1:128000, well 2
[17] = biological target: Ra12-C888P fusion protein (human C888P fused to Mycobacterium tuberculosis Ra12); assay: ELISA, RC888P on plate, serum 1:256000, well 1
[18] = biological target: Ra12-C888P fusion protein (human C888P fused to Mycobacterium tuberculosis Ra12); assay: ELISA, RC888P on plate, serum 1:256000, well 2
[19] = biological target: Ra12-C888P fusion protein (human C888P fused to Mycobacterium tuberculosis Ra12); assay: ELISA, RC888P on plate, serum 1:512000, well 1
[20] = biological target: Ra12-C888P fusion protein (human C888P fused to Mycobacterium tuberculosis Ra12); assay: ELISA, RC888P on plate, serum 1:512000, well 2
[21] = biological target: Ra12-C888P fusion protein (human C888P fused to Mycobacterium tuberculosis Ra12); assay: ELISA, RC888P on plate, serum 1:1024000, well 1
[22] = biological target: Ra12-C888P fusion protein (human C888P fused to Mycobacterium tuberculosis Ra12); assay: ELISA, RC888P on plate, serum 1:1024000, well 2
[23] = biological target: Ra12-C888P fusion protein (human C888P fused to Mycobacterium tuberculosis Ra12); assay: ELISA, RC888P on plate, serum 1:1000, average of 2 wells
[24] = biological target: Ra12-C888P fusion protein (human C888P fused to Mycobacterium tuberculosis Ra12); assay: ELISA, RC888P on plate, serum 1:2000, average of 2 wells
[25] = biological target: Ra12-C888P fusion protein (human C888P fused to Mycobacterium tuberculosis Ra12); assay: ELISA, RC888P on plate, serum 1:4000, average of 2 wells
[26] = biological target: Ra12-C888P fusion protein (human C888P fused to Mycobacterium tuberculosis Ra12); assay: ELISA, RC888P on plate, serum 1:8000, average of 2 wells
[27] = biological target: Ra12-C888P fusion protein (human C888P fused to Mycobacterium tuberculosis Ra12); assay: ELISA, RC888P on plate, serum 1:16000, average of 2 wells
[28] = biological target: Ra12-C888P fusion protein (human C888P fused to Mycobacterium tuberculosis Ra12); assay: ELISA, RC888P on plate, serum 1:32000, average of 2 wells
[29] = biological target: Ra12-C888P fusion protein (human C888P fused to Mycobacterium tuberculosis Ra12); assay: ELISA, RC888P on plate, serum 1:64000, average of 2 wells
[30] = biological target: Ra12-C888P fusion protein (human C888P fused to Mycobacterium tuberculosis Ra12); assay: ELISA, RC888P on plate, serum 1:128000, average of 2 wells
[31] = biological target: Ra12-C888P fusion protein (human C888P fused to Mycobacterium tuberculosis Ra12); assay: ELISA, RC888P on plate, serum 1:256000, average of 2 wells
[32] = biological target: Ra12-C888P fusion protein (human C888P fused to Mycobacterium tuberculosis Ra12); assay: ELISA, RC888P on plate, serum 1:512000, average of 2 wells
[33] = biological target: Ra12-C888P fusion protein (human C888P fused to Mycobacterium tuberculosis Ra12); assay: ELISA, RC888P on plate, serum 1:1024000, average of 2 wells

Measured: ELISA absorbance at 450 nm

Preimmune sera (antibody)
0.07 OD450: [23]
0.05 OD450: [4] | [6] | [10] | [12] | [14] | [20]
0.09 OD450: [1]
0.06 OD450: all other assays above
